Results published in the RNAGym collection of RNA variant scans (doi:10.7554/elife.80360).

B1: HDV Ribozyme (parent)
chain: GGCCGGCAUGGUCCCAGCCUCCUCGCUGGCGCCGGCUGGGCAACAUUCCGAGGGGACCGUCCCCUCGGUAAUGGCGAAUGGGACCCA

Variants of: B1
Assay: self-cleavage, relative activity (ratio to wild type); higher = more cleavage; co-transcriptional

Variant | self-cleavage
C4G C64U | 0.214
C4G C85G | 0.332
C4U G53U | 0.831
C4A G81U | 0.128
C4A G81C | 0
C4G G53U | 0.424
C4U A42U | 0.284
C4G A70C | 0.244
C4G A70U | 0.35
C4A G35U | 0.0369
C4A G35C | 0.086
C4A G31C | 0.0739
C4U C24U | 0.237
C4G C22G | 0
C4U U37C | 0.772
C4U C13G | 0.0449
C4U A77C | 0.0978
C4U C57A | 1.08
C4A G38C | 0
C4G U47G | 0.175
C4G G35U | 0.0875
C4G G52A | 0.47
C4G G52C | 0.383
C4G G52U | 0.215

Variant | self-cleavage
C4G G81A | 0.0382
C4G A8U | 0.214
C4G C24U | 0.193
C4A C86G | 0.405
C4G C44A | 0.0346
C4U G80A | 0.242
C4G C18A | 0.0287
C4G C18G | 0.0282
C4G G29A | 0
C4G G29U | 0.0292
C4A U37C | 0.415
C4U G25C | 0.0773
C4G A42U | 0.0875
C4U A70G | 0.541
C4G C75G | 0.122
C4G C75A | 0.0692
C4A G55U | 0.237
C4G C15G | 0.308
C4G U65C | 0.18
C4A G52A | 0.401
C4U U69C | 0.755
C4U U69G | 0.831
C4U G6A | 0.532
C4A G82U | 0.089

Variant | self-cleavage
C4A G82A | 0.0272
C4U C41G | 0.374
C4G A51G | 0.554
G5A A45G | 0.196
C4G C32A | 0.0692
C4G C32G | 0
C4G C32U | 0.086
C4G G76U | 0.469
C4A G74C | 0.0997
C4G C26U | 0.684
C4U U60A | 0.831
C4G G73A | 0.156
C4U U79G | 0.185
C4U C84A | 0.712
C4U C84U | 0.514
C4A G28C | 0.0396
C4G U23C | 0.208
C4G G39C | 0.0326
C4G G39A | 0.0183
C4G A56G | 0.249
C4U C14G | 0.369
C4A G5C | 0.232
C4A G5U | 0.122
G5A A77U | 0

Variant | self-cleavage
G5A A77C | 0.0504
C4G C49A | 0.346
C4A G25A | 0.089
C4U C85A | 0.341
C4U C64U | 0.695
C4U C64A | 0.639
C4U A71U | 0.776
C4U C48U | 0.931
C4A G67U | 0.354
C4U G54A | 0.791
C4U G54U | 0.789
C4G G50C | 0.237
C4G G50A | 0.415
C4U C19A | 0.0678
C4U C22A | 0.188
C4U U46A | 0.485
C4U U46G | 0.277
C4U A51G | 0.467
C4U A51U | 0.85
C4A U23G | 0.0449
C4G A78U | 0.116
C4G A78C | 0.0923
C4U G74U | 0.163
C4G C30G | 0

Variant | self-cleavage
C4U C66U | 0.704
C4U C66A | 0.755
C4U G59U | 0.973
C4U G59A | 0.589
C4U U23C | 0.571
C4U G38C | 0.116
C4G C19U | 0.0779
C4A G50C | 0.456
C4A G50A | 0.172
C4G C7A | 0
C4G C7G | 0.0875
C4G U46G | 0
C4G U46C | 0
C4G G67C | 0.374
C4U G11U | 0.219
C4U C58A | 0.852
C4U C58U | 1.15
C4U G35C | 0.119
C4U G35A | 0.173
C4A U27G | 0.225
C4U A45C | 0.475
C4U A45U | 0.458
C4U A45G | 0.862
C4G G28C | 0.101

Variant | self-cleavage
C4A G29U | 0
C4G A77C | 0
C4G A77U | 0.0354
C4G G17U | 0
C4A G11U | 0
C4U U72G | 0.361
C4U G34A | 0.772
C4U C26G | 0.72
C4U G5C | 0.166
C4U A83C | 0.111
C4U G81U | 0.0723
C4U G81A | 0.136
C4G G55A | 0.305
C4G U72C | 0.0426
C4A U72C | 0.111
C4U C18U | 0.323
C4U | 0.758
C4G | 0.376
C4U C32U | 0.525
C4U G39A | 0.136
C4U G39U | 0.58
C4U C61G | 0.394
G5A A78C | 0.106
G5A A78G | 0.178

Variant | self-cleavage
C4G G34A | 0.161
C4G G68U | 0.227
C4G G68C | 0.475
C4G U69G | 0.317
C4G U69C | 0.308
C4A G17C | 0.0386
C4G G38C | 0
C4A G68U | 0.453
C4A U69C | 0.277
C4U G28C | 0
G5A A51C | 0.312
C4A G73A | 0
C4A G73C | 0.0426
C4U A43C | 0.578
C4G A45C | 0.0554
C4U G76U | 0.831
C4U G76C | 0.984
C4G A16C | 0.0755
C4G A71U | 0.156
C4A U65A | 0.594
C4U G10A | 0.35
C4U G52C | 0.776
C4G G59A | 0.198
